Measurements as given in article PMC4620744.
Values belong to the substance of their own block, whether it stands above or below them.

How the values were obtained:
[1] = target: full-length H2A-H2B (S. cerevisiae) (UniProt P04911); assay: ITC
[2] = target: H2A-H2B^30-130 (S. cerevisiae) (UniProt P04911); assay: ITC
[3] = target: full-length FACT (Spt16-Pob3 heterodimer) (S. cerevisiae) (UniProt P32558); assay: ITC
[4] = target: full-length FACT (Spt16-Pob3 heterodimer) (S. cerevisiae) (UniProt P32558); assay: native gel or EMSA
[5] = target: Fluorescein-Spt16 MBD (Spt16^965-990) (S. cerevisiae) (UniProt P32558); assay: fluorescence polarisation
[6] = target: full-length H2A-H2B (S. cerevisiae) (UniProt P04911); assay: fluorescence polarisation
[7] = target: H2A-H2B^30-130 bearing H2B Y45A (S. cerevisiae) (UniProt P04911); assay: ITC
[8] = target: H2A-H2B^30-130 bearing H2B Y45A and M62A (S. cerevisiae) (UniProt P04911); assay: ITC
[9] = target: H2A-H2B^30-130 bearing H2B M62A (S. cerevisiae) (UniProt P04911); assay: ITC

Substance: Spt16-MBD Y972A (from UniProt P32558 965-990) (peptide)
fold decrease in binding against the unmutated peptide [2]: 48 fold

Substance: full-length H2A-H2B (from UniProt P04911 1-132; P02293 1-131) (complex)
KD of one of two independent binding sites [3]: 340 nM | KD of the other of two independent binding sites [3]: 1620 nM | stoichiometry N [3]: 2 | apparent KD of one of two EMSA binding events [4]: 100 nM | apparent KD of the other of two EMSA binding events [4]: 150 nM | stoichiometry N [4]: 2 | Kd [5]: 2300 nM

Substance: Pob3-MBD DED509-511AAA (from UniProt Q04636 505-529) (peptide)
fold decrease in binding against the unmutated peptide [2]: 38 fold

Substance: Spt16-MBD (Spt16^965-990) (from UniProt P32558 965-990) (peptide)
IC50 [6]: 21100 nM | Ki [6]: 2300 nM

Substance: Spt16-MBD DES981-983AAA (from UniProt P32558 965-990) (peptide)
fold decrease in affinity against the unmutated peptide [2]: 10 fold

Substance: Spt16-MBD SEEE965-968AAAA (from UniProt P32558 965-990) (peptide)
fold decrease in affinity against the unmutated peptide [2]: 12 fold

Substance: Spt16^958-990 (from UniProt P32558 958-990) (peptide)
fold decrease in binding against H2A-H2B^30-130 [7]: 25 fold | fold decrease in binding against H2A-H2B^30-130 [8]: 42 fold | fold decrease in binding against H2A-H2B^30-130 [9]: 12 fold

Substance: Pob3-MBD DNDAD517-521AAAAA (from UniProt Q04636 505-529) (peptide)
fold decrease in binding against the unmutated peptide [2]: 17 fold

Substance: Spt16-MBD SEDD975-978AAAA (from UniProt P32558 965-990) (peptide)
fold decrease in affinity against the unmutated peptide [2]: 20 fold

Results, then the substance that gave them:

Kd [1]: 800 nM | stoichiometry N [1]: 1
Substance: Spt16-C (domain or fragment)

fold decrease in binding against the unmutated peptide [2]: > 100 fold
Substance: Pob3-MBD F512A (from UniProt Q04636 505-529) (peptide)

Kd [2]: 5000 nM
Substance: Spt16 E968A (from UniProt P32558 965-990) (peptide)

fold decrease in affinity against the unmutated peptide [2]: 15 fold
Substance: Spt16-MBD EDEE987-990AAAA (from UniProt P32558 965-990) (peptide)

fold decrease in affinity against H2A-H2B^30-130 [7]: 12 fold | fold decrease in affinity against H2A-H2B^30-130 [8]: 41 fold | fold decrease in affinity against H2A-H2B^30-130 [9]: 9 fold | IC50 [6]: 15700 nM | Ki [6]: 1300 nM
Substance: Pob3-MBD (Pob3^505-529) (from UniProt Q04636 505-529) (peptide)

Kd [2]: 35000 nM
Substance: Pob3 D509A (from UniProt Q04636 505-529) (peptide)
